Source: paper PMC9170038, “Crowdsourced RNA design discovers diverse, reversible, efficient, self-contained molecular switches”

Key:
Conditions in all cases: chain copies: 2; label: tethered by stalled RNA polymerase
[1] = molecular target: T1, MS2 coat protein, dlFG mutant (Escherichia phage MS2, UniProt P03612, del68-81insG); assay: 4 mM Mg2+; FMN 200 uM; RNA-MaP array; 100 mM Tris-HCl pH 7.5, 80 mM KCl, 4 mM MgCl2, 0.1 mg/mL BSA, 1 mM DTT, 0.01 mg/mL yeast tRNA, 0.01% Tween-20; protein 1.5 nM to 3 uM; 37 C (Table S3)
[2] = molecular target: T1, MS2 coat protein, dlFG mutant; assay: 4 mM Mg2+; theophylline 2 mM; RNA-MaP array; 100 mM Tris-HCl pH 7.5, 80 mM KCl, 4 mM MgCl2, 0.1 mg/mL BSA, 1 mM DTT, 0.01 mg/mL yeast tRNA, 0.01% Tween-20; protein 1.5 nM to 3 uM; 37 C (Table S3)
[3] = molecular target: T1, MS2 coat protein, dlFG mutant; assay: 4 mM Mg2+; L-tryptophan 2.4 mM; RNA-MaP array; 100 mM Tris-HCl pH 7.5, 80 mM KCl, 4 mM MgCl2, 0.1 mg/mL BSA, 1 mM DTT, 0.01 mg/mL yeast tRNA, 0.01% Tween-20; protein 1.5 nM to 3 uM; 37 C (Table S3)
[4] = molecular target: T1, MS2 coat protein, dlFG mutant; assay: 4 mM Mg2+; miR-208a RNA 100 nM (AU…UUGU); RNA-MaP array; 100 mM Tris-HCl pH 7.5, 80 mM KCl, 4 mM MgCl2, 0.1 mg/mL BSA, 1 mM DTT, 0.01 mg/mL yeast tRNA, 0.01% Tween-20; protein 1.5 nM to 3 uM; 37 C (Table S3)
[5] = molecular target: T1, MS2 coat protein, dlFG mutant; assay: 4 mM Mg2+; no ligand; RNA-MaP array; 100 mM Tris-HCl pH 7.5, 80 mM KCl, 4 mM MgCl2, 0.1 mg/mL BSA, 1 mM DTT, 0.01 mg/mL yeast tRNA, 0.01% Tween-20; protein 1.5 nM to 3 uM; 37 C (Table S3)

B1: Eterna 5811984 (Exclusion 6) (ssRNA)
RNA: CUUAGUAUCUAGGAUAUCUAGUACAUAGUAUCUAGAGAAGGAGAUACAUGAGGAUCACCCAUGUUCUGUGUUCU
Kd [1]: 65.6 nM

B2: Eterna 6082084 (Exclusion 3) (ssRNA)
RNA: AACACGUGAGGAUAUACAUGAGGAUCACCCAUGUUGGUACAAUCCUGUCCGACUAUCCGUAGAAGGCAUUGACU
Kd [1]: 34.1 nM

B3: Eterna 7639274 (Exclusion - Theophylline B) (ssRNA)
RNA: UUAUUUAUAAUGGAUACCAGUGCUGUGGCCCGGCAUCCUGACAUGAGGAUCACCCAUGUGUACCCUUGGCAGCUGUUAUGGGUUU
Kd [2]: 24.2 nM

B4: Eterna 7627711 (Same State - Tryptophan B) (ssRNA)
RNA: GGUUACUCUACGGCCGCCACUGAUUAAUUAUAAUCCUGUACAUAAACAUGAGGAUCACCCAUGUACAGGACCGGGUAGUGUAACC
Kd [3]: 29.1 nM

B5: Eterna 7730854 (Same State - Tryptophan A) (ssRNA)
RNA: UACAUGAGGAUCACCCAUGUCCCAUGUGAACGAGGACCGGUACGGCCGCCACUCGACCGAGGCGGCACAUGAGGAUCACCCGCAU
Kd [3]: 1580 nM

B6: Eterna 13246 (Sensor for hsa-mir-208a) (ssRNA)
RNA: UGGAUCUAGGCUUGCCUGGGUCCAUGUUGACAUGAGGAUCACCCAUGUGUAUUUUAUAAGCUUUUUGUUUGUCAACA
Kd [4]: 13.4 nM

B7: Eterna 11880 (Sensor v3, turn-off variant 2) (ssRNA)
RNA: AGAAAUGCCCAUGGCCGCAAGCUUUUCGCUUGUCUUACCACAUGAGGAUCACCCAUGUGACAUGGGCUCCUUAUAAU
Kd [4]: 10.7 nM

B8: Eterna 10216 (Sensor for hsa-mir-208a) (ssRNA)
RNA: CUCAAAACAAGUUGCAGUGUUCGUCUUUAACAUGAGGAUCACCCAUGUAAUAACCCAGUGGAAGCGCUCGGGCCACC
Kd [4]: 21.1 nM

B9: Eterna 1142 (Exclusion - Theophylline A) (ssRNA)
RNA: UGCAUCAGUGCCUUUGAUCUAUUCCUGGAUACCAGAUCCUACUUGAUCCCUUGGCAGCCAUACGGGAGUGAUGUUCCAUGUAUCC
Kd [5]: > 3000 nM

B10: Eterna 7699730 (Exclusion - Theophylline A) (ssRNA)
RNA: AGAAACUUGUAUGUCGGCCCUGCGCGCGAUACCAGCCAAAUGGAUGGCCCUUGGCAGCGCAGCGAGUGAUGUUCGCCCGGCUGAC
Kd [5]: > 3000 nM
